# Test results from patent US20030068675, “Position dependent recognition of GNN nucleotide triplets by zinc fingers” (published 2003).
# Residue numbers refer to the chain shown, from its start.
# T1: ZFP SBS#297 (synthetic)
# T1 chain: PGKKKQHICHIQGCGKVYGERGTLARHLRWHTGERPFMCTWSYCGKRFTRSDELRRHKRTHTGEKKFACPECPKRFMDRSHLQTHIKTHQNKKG
# T2: ZFP SBS#318 (synthetic)
# T2 chain: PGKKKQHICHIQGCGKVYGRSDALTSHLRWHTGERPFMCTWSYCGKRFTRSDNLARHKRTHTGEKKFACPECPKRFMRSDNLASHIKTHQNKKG
# T3: ZFP SBS#384 (synthetic)
# T3 chain: T2 chain with R20D, S21R, D22S, S26T, R50D, S51R, D52S, N53H, N81A, S84R
# T4: ZFP SBS#306 (synthetic)
# T4 chain: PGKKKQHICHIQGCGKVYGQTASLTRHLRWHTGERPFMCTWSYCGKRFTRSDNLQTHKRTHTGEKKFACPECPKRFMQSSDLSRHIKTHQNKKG
# T5: ZFP SBS#304 (synthetic)
# T5 chain: T4 chain with S23D
# T6: ZFP SBS#298 (synthetic)
# T6 chain: T4 chain with A22G, S23E, T25R, T56K, Q78T, S80G
# T7: ZFP SBS#300 (synthetic, UniProt P08047)
# T7 chain: T4 chain with S23D, T25R, T56R
# T8: ZFP SBS#301 (synthetic)
# T8 chain: T4 chain with T21S, S23D, T25R
# T9: ZFP SBS#355 (synthetic)
# T9 chain: T4 chain with Q20E, T21K, S23N, Q55T, T56R, S79R, D81N, S83V
# T10: ZFP SBS#375 (synthetic)
# T10 chain: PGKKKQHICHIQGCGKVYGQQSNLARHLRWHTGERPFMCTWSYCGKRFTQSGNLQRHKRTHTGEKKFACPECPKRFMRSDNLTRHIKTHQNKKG
# T11: ZFP SBS#377 (synthetic)
# T11 chain: T4 chain with T21S, A22G, S51G, N53A, Q55T, T56S, Q78R, S80D, D81A, S83T
# T12: ZFP SBS#316 (synthetic)
# T12 chain: T1 chain with R50Q, S51R, E53N, R55Q, D78Q, R79S, S80G, Q83S, T84R
# T13: ZFP SBS#312 (synthetic)
# T13 chain: T1 chain with R50N, S51R, E53N, R55Q, D78Q, R79S, S80G, Q83S, T84R
# T14: ZFP SBS#311 (synthetic)
# T14 chain: T4 chain with Q20D, T21R, A22S, S23T, R50N, S51R, T56R, S80G, D81H
# T15: ZFP SBS#350 (synthetic)
# T15 chain: T1 chain with E20T, R21S, T23H, A25T, E53N, R55T, R79C, S80R, H81D, Q83T
# T16: ZFP SBS#381 (synthetic)
# T16 chain: T10 chain with Q20R, Q21S, S22D, N23E, A25T, G52S, N53D, R78Q, D80G, N81D
# T17: ZFP SBS#307 (synthetic)
# T17 chain: T10 chain with Q20R, Q21S, S22D, N23E, A25R, R78Q, D80G, T83S
# B1: GGAGGGGTG (dsDNA)
# DNA 1: GGAGGGGTG
# DNA 2: CACCCCTCC
# B2: TGCGCGGCC (dsDNA)
# DNA 1: TGCGCGGCC
# DNA 2: GGCCGCGCA
# B3: TAGGAGATGC (dsDNA)
# DNA 1: TAGGAGATGC
# DNA 2: GCATCTCCTA
# B4: GGCTGGGCG (dsDNA)
# DNA 1: GGCTGGGCG
# DNA 2: CGCCCAGCC
# B5: GTGGGCTTCA (dsDNA)
# DNA 1: GTGGGCTTCA
# DNA 2: TGAAGCCCAC
# B6: GCTTAGGCA (dsDNA)
# DNA 1: GCTTAGGCA
# DNA 2: TGCCTAAGC
# B7: GAAGAGGAC (dsDNA)
# DNA 1: GAAGAGGAC
# DNA 2: GTCCTCTTC
# B8: GAGGAAGAT (dsDNA)
# DNA 1: GAGGAAGAT
# DNA 2: ATCTTCCTC
# B9: GGCGGAGAT (dsDNA)
# DNA 1: GGCGGAGAT
# DNA 2: ATCTCCGCC
# B10: GTGTTGGCAG (dsDNA)
# DNA 1: GTGTTGGCAG
# DNA 2: CTGCCAACAC
# B11: GCGGAGGCG (dsDNA)
# DNA 1: GCGGAGGCG
# DNA 2: CGCCTCCGC
# B12: GGAGATGCC (dsDNA)
# DNA 1: GGAGATGCC
# DNA 2: GGCATCTCC
# B13: TCCGAGGGT (dsDNA)
# DNA 1: TCCGAGGGT
# DNA 2: ACCCTCGGA
# B14: GCAGCTGCGC (dsDNA)
# DNA 1: GCAGCTGCGC
# DNA 2: GCGCAGCTGC
# B15: GGGGGCGGG (dsDNA)
# DNA 1: GGGGGCGGG
# DNA 2: CCCGCCCCC
# B16: GAAGAAGCG (dsDNA)
# DNA 1: GAAGAAGCG
# DNA 2: CGCTTCTTC
# B17: GGGGAAGGG (dsDNA)
# DNA 1: GGGGAAGGG
# DNA 2: CCCTTCCCC
# B18: GGTGCTGGT (dsDNA)
# DNA 1: GGTGCTGGT
# DNA 2: ACCAGCACC
# B19: GGGTTTGGG (dsDNA)
# DNA 1: GGGTTTGGG
# DNA 2: CCCAAACCC
# Experiments:
# Experiment in all cases: EMSA
# Settings in all cases: tags: MBP fusion
# ZFP SBS#352 = ZFP SBS#352 (synthetic)
# Description: (§1) Affinity is measured by titrating purified protein against a fixed amount of labeled double-stranded oligonucleotide target. The target typically comprises the natural binding site sequence flanked by the 3 bp found in the natural sequence and additional, constant flanking sequences. The natural binding site is typically 9 bp for a three-finger protein and 2×9 bp +intervening bases for a six finger ZFP. […] For the assay the target is added at a concentration of 1 nM or lower (the actual concentration is kept at least 10-fold lower than the expected dissociation constant), purified ZFPs are added at various concentrations, and the reaction is allowed to equilibrate for at least 45 min. In addition the reaction mixture also contains 10 mM Tris (pH 7.5), 100 mM KCl, 1 mM MgCl2, 0.1 mM ZnCl2, 5 mM DTT, 10% glycerol, 0.02% BSA. (NB: in earlier assays poly d(IC) was also added at […].) The equilibrated reactions are loaded onto a 10% polyacrylamide gel, which has been pre-run for 45 min in Tris/glycine buffer, then bound and unbound labeled target is resolved by electrophoresis at 150V.
# ZFP SBS#297 = molecular target: T1, ZFP SBS#297
# Description: as §1
# ZFP SBS#318 = molecular target: T2, ZFP SBS#318
# Description: as §1
# ZFP SBS#358 = ZFP SBS#358 (synthetic)
# Description: as §1
# ZFP SBS#384 = molecular target: T3, ZFP SBS#384
# Description: as §1
# ZFP SBS#302 = ZFP SBS#302 (synthetic)
# Description: as §1
# ZFP SBS#306 = molecular target: T4, ZFP SBS#306
# Description: as §1
# ZFP SBS#304 = molecular target: T5, ZFP SBS#304
# Description: as §1
# ZFP SBS#298 = molecular target: T6, ZFP SBS#298
# Description: as §1
# ZFP SBS#300 = molecular target: T7, ZFP SBS#300
# Description: as §1
# ZFP SBS#301 = molecular target: T8, ZFP SBS#301
# Description: as §1
# ZFP SBS#299 = ZFP SBS#299 (synthetic)
# Description: as §1
# ZFP SBS#305 = ZFP SBS#305 (synthetic)
# Description: as §1
# ZFP SBS#303 = ZFP SBS#303 (synthetic)
# Description: as §1
# ZFP SBS#355 = molecular target: T9, ZFP SBS#355
# Description: as §1
# ZFP SBS#354 = ZFP SBS#354 (synthetic)
# Description: as §1
# ZFP SBS#375 = molecular target: T10, ZFP SBS#375
# Description: as §1
# ZFP SBS#324 = ZFP SBS#324 (synthetic)
# Description: as §1
# ZFP SBS#321 = ZFP SBS#321 (synthetic)
# Description: as §1
# ZFP SBS#323 = ZFP SBS#323 (synthetic)
# Description: as §1
# ZFP SBS#377 = molecular target: T11, ZFP SBS#377
# Description: as §1
# ZFP SBS#251 = ZFP SBS#251 (synthetic)
# Description: as §1
# ZFP SBS#316 = molecular target: T12, ZFP SBS#316
# Description: as §1
# ZFP SBS#309 = ZFP SBS#309 (synthetic)
# Description: as §1
# ZFP SBS#312 = molecular target: T13, ZFP SBS#312
# Description: as §1
# ZFP SBS#311 = molecular target: T14, ZFP SBS#311
# Description: as §1
# ZFP SBS#314 = ZFP SBS#314 (synthetic)
# Description: as §1
# ZFP SBS#315 = ZFP SBS#315 (synthetic)
# Description: as §1
# ZFP SBS#350 = molecular target: T15, ZFP SBS#350
# Description: as §1
# ZFP SBS#381 = molecular target: T16, ZFP SBS#381
# Description: as §1
# ZFP SBS#367 = ZFP SBS#367 (synthetic)
# Description: as §1
# ZFP SBS#307 = molecular target: T17, ZFP SBS#307
# Description: as §1
# ZFP SBS#320 = ZFP SBS#320 (synthetic)
# Description: as §1
# ZFP SBS#319 = ZFP SBS#319 (synthetic, UniProt P08047)
# Description: as §1
# ZFP SBS#365 = ZFP SBS#365 (synthetic)
# Description: as §1
# ZFP SBS#363 = ZFP SBS#363 (synthetic)
# Description: as §1
# ZFP SBS#361 = ZFP SBS#361 (synthetic)
# Description: as §1
# Sequence of ZFP SBS#361 (synthetic) (chain, as listed by the source): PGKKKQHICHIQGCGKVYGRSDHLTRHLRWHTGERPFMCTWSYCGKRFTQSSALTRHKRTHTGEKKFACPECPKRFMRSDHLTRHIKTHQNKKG
# Sequence of ZFP SBS#358 (synthetic) (chain, as listed by the source): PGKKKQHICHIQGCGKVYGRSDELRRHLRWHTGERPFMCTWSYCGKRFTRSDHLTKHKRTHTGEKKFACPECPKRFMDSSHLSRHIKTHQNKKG
# Sequence of ZFP SBS#299 (synthetic) (chain, as listed by the source): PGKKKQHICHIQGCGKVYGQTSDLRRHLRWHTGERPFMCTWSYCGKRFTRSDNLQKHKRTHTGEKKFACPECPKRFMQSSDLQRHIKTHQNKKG
# Sequence of ZFP SBS#321 (synthetic) (chain, as listed by the source): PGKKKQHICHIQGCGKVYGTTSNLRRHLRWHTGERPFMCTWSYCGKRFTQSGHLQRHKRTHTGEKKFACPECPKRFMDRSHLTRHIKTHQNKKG
# Sequence of ZFP SBS#309 (synthetic) (chain, as listed by the source): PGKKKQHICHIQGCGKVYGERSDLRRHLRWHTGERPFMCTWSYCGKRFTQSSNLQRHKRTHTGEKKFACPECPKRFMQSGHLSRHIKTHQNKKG
# Sequence of ZFP SBS#305 (synthetic) (chain, as listed by the source): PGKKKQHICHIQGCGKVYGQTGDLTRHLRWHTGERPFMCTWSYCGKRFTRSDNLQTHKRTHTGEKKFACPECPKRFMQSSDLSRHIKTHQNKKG
# Sequence of ZFP SBS#320 (synthetic) (chain, as listed by the source): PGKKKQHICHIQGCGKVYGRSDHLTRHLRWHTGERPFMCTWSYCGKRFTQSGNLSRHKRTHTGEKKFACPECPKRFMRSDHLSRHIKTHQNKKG
# Sequence of ZFP SBS#319 (P08047 other isoform, or with tags, fused parts or gaps): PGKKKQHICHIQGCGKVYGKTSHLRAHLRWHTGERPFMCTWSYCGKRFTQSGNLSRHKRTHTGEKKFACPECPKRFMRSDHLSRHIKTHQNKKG
# Sequence of ZFP SBS#314 (synthetic) (chain, as listed by the source): as the sequence (P08047 other isoform, or with tags, fused parts or gaps) above, with K20D, T21R, H23S, R25T, A26R, G52S, S55Q, R78Q, D80G counted along it
# Sequence of ZFP SBS#354 (synthetic) (chain, as listed by the source): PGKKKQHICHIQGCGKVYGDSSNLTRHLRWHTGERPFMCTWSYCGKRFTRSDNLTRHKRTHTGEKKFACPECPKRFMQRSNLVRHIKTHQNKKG
# Sequence of ZFP SBS#302 (synthetic) (chain, as listed by the source): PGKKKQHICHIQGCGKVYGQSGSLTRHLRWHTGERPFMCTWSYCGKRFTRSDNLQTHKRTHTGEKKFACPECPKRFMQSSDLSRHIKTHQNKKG
# Sequence of ZFP SBS#323 (synthetic) (chain, as listed by the source): as the sequence (P08047 other isoform, or with tags, fused parts or gaps) above, with K20T, H23N, A26R, N53H, S55Q, R78D, S79R, S83T counted along it
# Sequence of ZFP SBS#324 (synthetic) (chain, as listed by the source): as the sequence (P08047 other isoform, or with tags, fused parts or gaps) above, with K20T, H23N, A26R, N53H, S55Q, R78D, S79R, S83T counted along it
# Sequence of ZFP SBS#352 (synthetic) (chain, as listed by the source): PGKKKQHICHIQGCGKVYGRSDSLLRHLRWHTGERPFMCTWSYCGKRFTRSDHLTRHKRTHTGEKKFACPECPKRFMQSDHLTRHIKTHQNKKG
# Sequence of ZFP SBS#303 (synthetic) (chain, as listed by the source): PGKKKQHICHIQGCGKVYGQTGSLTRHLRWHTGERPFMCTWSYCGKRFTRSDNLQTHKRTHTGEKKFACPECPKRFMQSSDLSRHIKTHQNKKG
# Sequence of ZFP SBS#365 (synthetic) (chain, as listed by the source): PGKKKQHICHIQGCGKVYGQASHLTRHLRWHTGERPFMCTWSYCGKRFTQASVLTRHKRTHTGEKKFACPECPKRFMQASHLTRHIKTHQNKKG
binder,measurement,setting,value
B1,Kd,ZFP SBS#352,26 nM
B2,Kd,ZFP SBS#297,500 nM
B3,Kd,ZFP SBS#318,100 nM
B4,Kd,ZFP SBS#358,225 nM
B5,Kd,ZFP SBS#384,60 nM
B6,Kd,ZFP SBS#302,75 nM
same,Kd,ZFP SBS#306,280 nM
same,Kd,ZFP SBS#304,230 nM
same,Kd,ZFP SBS#298,4000 nM
same,Kd,ZFP SBS#300,400 nM
same,Kd,ZFP SBS#301,350 nM
same,Kd,ZFP SBS#299,4000 nM
same,Kd,ZFP SBS#305,230 nM
same,Kd,ZFP SBS#303,135 nM
B7,Kd,ZFP SBS#355,20 nM
same,Kd,ZFP SBS#354,28 nM
B8,Kd,ZFP SBS#375,85 nM
B9,Kd,ZFP SBS#324,200 nM
same,Kd,ZFP SBS#321,200 nM
same,Kd,ZFP SBS#323,600 nM
B10,Kd,ZFP SBS#377,89 nM
B11,Kd,ZFP SBS#251,27.5 nM
B12,Kd,ZFP SBS#316,3000 nM
same,Kd,ZFP SBS#309,4000 nM
same,Kd,ZFP SBS#312,2000 nM
same,Kd,ZFP SBS#311,170 nM
same,Kd,ZFP SBS#314,118 nM
same,Kd,ZFP SBS#315,265 nM
B13,Kd,ZFP SBS#350,332 nM
B14,Kd,ZFP SBS#381,1.5 nM
B15,Kd,ZFP SBS#367,60 nM
B16,Kd,ZFP SBS#307,50.5 nM
B17,Kd,ZFP SBS#320,5 nM
same,Kd,ZFP SBS#319,125 nM
B18,Kd,ZFP SBS#365,600 nM
B19,Kd,ZFP SBS#363,200 nM
same,Kd,ZFP SBS#361,130 nM
